Assays:
[1] = system: ES cell EB5; assay: Coculture of ES cell EB5 with PA6 cell in BMP4-added serum-free medium, immunological staining; type: cell-based, mouse
Procedure: A medium was prepared by adding 0.5 nmol/l BMP4 (manufactured by R & D) to the serum-free medium described in Reference Example 1. The ES cell EB5 was cocultured with PA6 cell according to the method described in Reference Example 1, using the thus produced BMP4-added serum-free medium instead of the serum-free medium used in Reference Example 1. Eight days after culturing, immunological cell staining was carried out by using the anti-NCAM antibody, the anti-nestin antibody or an antibody against a non-neural ectoderm cell marker E cadherin (manufactured by Takara Shuzo). As a control, coculturing was carried out in the serum-free medium without BMP4.
Also, 8 days after culturing in the BMP4-added serum-free medium, the medium was changed to Glasgow MEM medium containing 10% fetal bovine serum (manufactured by GIBCO BRL), followed by culturing for 3 days. The thus cultured cells were fixed for 30 minutes by adding 4% paraformaldehyde and immunologically stained with an antibody against a skin epidermis cell marker keratin 14 (manufactured by Biomedia), and the results were compared with those in which culturing was continued for additional 3 days in the bovine serum-free medium, with the results shown in FIGS. 9G, H and I.

[2] = system: ES cell EB5; assay: Mesodermal marker staining of colonies from ES cell/PA6 coculture in BMP4-added serum-free medium; type: cell-based, mouse; settings: 0.5 nmol/l BMP4-added serum-free medium, coculture with PA6 cell, 8 days
Excerpt: A medium was produced by adding 0.5 nmol/l of BMP4 (manufactured by R & D) to the serum-free medium described in Reference Example 1. Using the thus produced BMP4-added serum-free medium instead of the serum-free medium used in Reference Example 1, the ES cell EB5 and PA6 cell were cocultured according to the method described in Reference Example 1. That is, the PA6 cell proliferated to almost confluent on a 3 cm tissue culture dish was used as a feeder cell, the ES cell was inoculated onto the feeder cell at a density of 200 cells/dish, medium exchange was carried out with a fresh medium on the 4th, 6th and 7th days, and the cells were cultured at 37° C. for 8 days in a stream of 5% carbon dioxide in a CO2 incubator.
Eight days after coculturing, the cells were fixed according to the method described in Reference Example 1, and colonies formed as a result of coculturing of the ES cell and PA6 cell were immunologically stained with the anti-NCAM antibody, the anti-E cadherin antibody, an MF20 antibody which recognizes mesodermal cells (manufactured by Developmental Studies Hybridoma Bank) and an antibody against PDGF receptor α or Flk1 whose expression are observed in mesodermal cells (S. I. Nishikawa et al., Development, 125, 1747 (1998)).

[3] = system: ES cell EB5; assay: Effects of shh and BMP4 on dorso-ventral neural markers in ES cell EB5/PA6 coculture; type: cell-based, mouse; settings: shh 300 nmol/l or BMP4 0.5 nmol/l added at medium exchange on 4th, 6th, 8th days; 10 days coculture with PA6
Procedure: According to the method described in Reference Example 1, the ES cell EB5 was cultured for 10 days in the serum-free medium without BMP4 by using the PA6 cell as a feeder cell. That is, the PA6 cell proliferated to almost confluent on a 3 cm tissue culture dish was used as a feeder cell, the ES cell was inoculated onto the feeder cell at a density of 200 cells/dish, the medium was exchanged with a fresh serum-free medium on the 4th, 6th and 8th days, and the cells were cultured at 37° C. for 10 days in a 5% CO2 incubator.
Effects of shh were evaluated according to the similar method described above, by using a serum-free medium to which 300 nmol/l of shh (manufactured by R & D) had been added at the time of the medium exchange on the 4th, 6th and 8th days.
Effects of BMP4 were evaluated according to the similar method described above, by using a serum-free medium to which 0.5 nmol/l of BMP4 (manufactured by R & D) had been added at the time of the medium exchange on the 4th, 6th and 8th days.
Ten days after coculturing, the cells cultured by respective culturing methods were fixed according to the method described in Reference Example 1, and the colonies formed as a result of coculturing of the ES cell with PA6 cell were immunologically stained with the anti-NCAM antibody, an antibody against HNF-3β which is a marker of the basal plate existing on the most ventral side of the central nervous system primordium (neural tube) (purchased from Developmental Studies Hybridoma Bank), an antibody against Nkx2.2 as a marker existing secondary to the HNF-3β from the ventral side (purchased from Developmental Studies Hybridoma Bank), an antibody against Pax-7 as a marker of the neural tube dorsal side (purchased from Developmental Studies Hybridoma Bank), an antibody against AP-2 as a marker of the neural crest cell (purchased from Developmental Studies Hybridoma Bank), an antibody against islet 1 as a marker of motor neuron (purchased from Developmental Studies Hybridoma Bank) and an antibody against VAchT which is a marker of cholinergic neuron (manufactured by Chemicon).

[4] = system: embryonic stem cell; settings: cited from earlier work
[5] = system: ES cell EB5; assay: Nerve differentiation of ES cell EB5 by solution recovered from PA6 cell with polyanion-containing Hanks' balanced salt solution (SDIA activity); type: cell-based, mouse; settings: SFRP 1 removed with anti-SFRP 1 polyclonal antibody on protein G Sepharose, 4° C., 15 hours; compared with untreated solution
Procedure: ES cell EB5 (H. Niwa et al., Nature Genet., 24, 372 (2000); obtained from Dr. Hitoshi Niwa at the Molecular Control Medical Science Course, Medical School, Osaka University) was used as the embryonic stem cell, and an MC3T3-G2/PA6 cell (H. Kodama et al., J. Cell Physiol., 112) 89 (1982), hereinafter referred to as “PA6 cell”) as the stromal cell, and the ES cell EB5 was cultured in accordance with the method described in Reference Example 1 and used in the test.
Cells of PA6 cultured to almost confluent state on a dish of 10 cm in diameter were washed twice with 10 ml of PBS(−) (manufactured by Invitrogen) and once with 10 ml of Hanks' balanced salt solution (manufactured by Invitrogen), 3 ml of Hanks' balanced salt solution containing from 0.001% (w/v) to 0.1% (w/v) of heparin (manufactured by Nacalai Tesque) was added thereto, the mixture was allowed to stand at 37° C. for 30 minutes, and the solution was recovered. The solution obtained was added to the PA6 on the 10 cm, dish washed in the same manner described above, the mixture was allowed to stand at 37° C. for 30 minutes in the same manner, and then the solution was recovered. This process was carried out on PA6 on the other 10 cm dish, and effect of the recovered solution ES cell was examined. […]

[6] = 0.5 nmol/l BMP4-added serum-free medium, coculture with PA6 cell, 8 days

B1: BMP4: bone morphogenetic protein 4, dorsal factor of neural tube (manufactured by R & D) (protein, UniProt P12644 293-408, looked up)
Bone morphogenetic protein 4: SPKHHSQRARKKNKNCRRHSLYVDFSDVGWNDWIVAPPGYQAFYCHGDCPFPLADHLNSTNHAIVQTLVNSVNSSIPKACCVPTELSAISMLYLDEYDKVVLKNYQEMVVEGCGCR
With B1 the “anti-NCAM antibody staining of ES cell-derived colonies” value [1, 6] was “anti-NCAM antibody-negative”, the “anti-nestin antibody staining of ES cell-derived colonies” value [1, 6] was “anti-nestin antibody-negative” and the “frequency of E cadherin-positive colonies” value [1, 6] was 98%. For the same molecule, the “frequency of keratin 14-positive colonies” value ([1]; 8 days in BMP4-added serum-free medium, then 3 days in Glasgow MEM medium containing 10% fetal bovine serum) was 47%, the “frequency of keratin 14-positive colonies” value ([1]; BMP4-added serum-free medium throughout (8 days plus additional 3 days serum-free)) was 34% and the “colonies stained with mesodermal cell markers PDGF receptor α, Flk1 and MF20, of the total colonies” value [2] was no more than 5%. The “ratio of ES cell-derived colonies stained with Anti-AP-2 antibody” value [3] was 24%, the “ratio of ES cell-derived colonies stained with Anti-HNF-3β antibody” value [3] was 9% and the “ratio of ES cell-derived colonies stained with Anti-NCAM antibody” value [3] was 90%. For the same molecule, the “ratio of ES cell-derived colonies stained with Anti-Nkx2.2 antibody” value [3] was 19%, the “ratio of ES cell-derived colonies stained with Anti-Pax-7 antibody” value [3] was 72% and the “ratio of ES cell-derived colonies stained with Anti-VAchT antibody” value [3] was 42%. For the same molecule, the “ratio of ES cell-derived colonies stained with Anti-islet 1 antibody” value [3] was 36%.

B2: IL-11: interleukin 11 (protein, UniProt P20809 22-199, looked up)
Interleukin-11: PGPPPGPPRVSPDPRAELDSTVLLTRSLLADTRQLAAQLRDKFPADGDHNLDSLPTLAMSAGALGALQLPGVLTRLRADLLSYLRHVQWLRRAGGSSLKTLEPELGTLQARLDRLLRRLQLLMSRLALPQPPPDPPAPPLAPPSSAWGGIRAAHAILGGLHLTLDWAVRGLLLLKTRL
In the case of B2, the “SDIA-like activity to induce differentiation of embryonic stem cell into ectoderm system cells” value [4] is listed as “no SDIA-like activity”.

B3: GDNF: glial cell-line derived neurotrophic factor (protein, UniProt P39905 78-211, looked up)
Glial cell line-derived …: SPDKQMAVLPRRERNRQAAAANPENSRGKGRRGQRGKNRGCVLTAIHLNVTDLGLGYETKEELIFRYCSGSCDAAETTYDKILKNLSRNRRLVSDKVGQACCRPIAFDDDLSFLDDNLVYHILRKHSAKRCGCI
In the case of B3, the “SDIA-like activity to induce differentiation of embryonic stem cell into ectoderm system cells” value [4] is listed as “no SDIA-like activity”.

B4: SFRP 1: mouse-derived secreted frizzled-related protein 1 (SEQ ID NO:7), about 38 kDa band identified in solution having SDIA activity (protein, listed as Mus musculus)
chain: MGVGRSARGRGGAASGVLLALAAALLAAGSASEYDYVSFQSDIGSYQSGRFYTKPPQCVDIPVDLRLCHNVGYKKMVLPNLLEHETMAEVKQQASSWVPLLNKNCHMGTQVFLCSLFAPVCLDRPIYPCRWLCEAVRDSCEPVMQFFGFYWPEMLKCDKFPEGDVCIAMTPPNTTEASKPQGTTVCPPCDNELKSEAIIEHLCASEFALRMKIKEVKKENGDKKIVPKKKKPLKLGPIKKKELKALVLFLKNGADCPCHQLDNLSHNFLIMGRKVKSQYLLTAIHKWDKKNKEFKNFMKRMKNHECPTFQSVFK
With B4 the “SDIA activity of solution after removal of SFRP 1” value [5] was “decrease of SDIA activity was observed”.

B5: FGF-8: fibroblast growth factor 8 (protein, UniProt P55075 23-233, looked up)
Fibroblast growth factor 8: QEGPGRGPALGRELASLFRAGREPQGVSQQHVREQSLVTDQLSRRLIRTYQLYSRTSGKHVQVLANKRINAMAEDGDPFAKLIVETDTFGSRVRVRGAETGLYICMNKKGKLIAKSNGKGKDCVFTEIVLENNYTALQNAKYEGWYMAFTRKGRPRKGSKTRQHQREVHFMKRLPRGHHTTEQSLRFEFLNYPPFTRSLRGSQRTWAPEPR
For B5, the “SDIA-like activity to induce differentiation of embryonic stem cell into ectoderm system cells” value [4] is listed as “no SDIA-like activity”.

From patent US20080160617A1, “AGENT FOR INDUCING EMBRYONIC STEM CELL TO ECTODERMAL CELL, METHOD FOR OBTAINING THE SAME, AND USE OF THE SAME” (KYOWA HAKKO KOGYO CO., LTD., priority 2001, published 2008)
